This note sets out measurements from article PMC10803816, “EGFR core fucosylation, induced by hepatitis C virus, promotes TRIM40-mediated-RIG-I ubiquitination and suppresses interferon-I antiviral defenses”.

A short description of data set [1]: confocal EGFR/Lamp1 colocalisation after EGF, Huh7. The following applies: glycan lost; control: wild-type EGFR.
A further data set in a line: immunoblot of total EGFR. The following applies: glycan lost; control: wild-type Flag-EGFR.
The nature of data set [2]: RT-qPCR of HCV RNA, 48 h infection. The following applies: glycan lost; control: EGFR KO Huh7 complemented with wild-type EGFR. In general terms: Real-time PCR tracks product formation cycle by cycle.
Data set [3] concerns the target T1, His6-SNAIL (UniProt O95863 1-264). Briefly: EMSA; text: SNAIL lost ability to bind mutant probe; legend and Methods leave open whether labeled or competitor; Beyotime EMSA kit GS005 per manufacturer; 8% native PAGE; buffer, salt, pH and temperature not stated. The following applies: protein: recombinant; tags: His6 (pET28a); label: 5' FAM per Methods (legend also mentions mutant probe added at 300 nM); blunt.

For data set [4], the target named is T1, His6-SNAIL. Briefly: EMSA; increasing SNAIL; Beyotime EMSA kit GS005 per manufacturer; 8% native PAGE; buffer, salt, pH and temperature not stated. The following applies: protein: recombinant; tags: His6 (pET28a); label: 5' FAM; blunt. For orientation: In EMSA bound probe runs differently from free probe, usually more slowly.
The target of data set [5] is T1, His6-SNAIL. Briefly: competition; 10-fold excess (300 nM) unlabeled probe abolished binding to WT-FAM probe; Beyotime EMSA kit GS005 per manufacturer; 8% native PAGE; buffer, salt, pH and temperature not stated. As to conditions: protein: recombinant; tags: His6 (pET28a); blunt.

T1 sequence (O95863 whole entry): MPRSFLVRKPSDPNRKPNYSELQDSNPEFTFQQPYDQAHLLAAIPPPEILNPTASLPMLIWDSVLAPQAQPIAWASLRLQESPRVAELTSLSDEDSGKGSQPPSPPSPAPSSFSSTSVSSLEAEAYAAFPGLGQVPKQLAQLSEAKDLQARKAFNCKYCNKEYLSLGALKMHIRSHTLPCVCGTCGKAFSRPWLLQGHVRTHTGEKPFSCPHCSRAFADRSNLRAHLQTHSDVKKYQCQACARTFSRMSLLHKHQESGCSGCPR

Regarding “Epidermal growth factor receptor (EGFR, ErbB1, HER1): N352Q”, the localisation_or_trafficking result in data set [1] is given as “decreases”. Besides, the expression_or_secretion result in “immunoblot of total EGFR” was “no change”. Further, the “other: viral replication” value in data set [2] is listed as “decreases”.

B1: FUT8 promoter Mut probe (dsDNA)
DNA 1: TACACTTCCTGACGTGAGAGGGGTCAGAGTGTGGGT
DNA 2: ACCCACACTCTGACCCCTCTCACGTCAGGAAGTGTA
Turning to B1, in the data set with His6-SNAIL [3], the binding result was “no binding”.

B2: FUT8 promoter WT probe (-295 to -260) (dsDNA)
DNA 1: TACACTTCCTGACGTGGCAGGTGAGAGAGTGTGGGT
DNA 2: ACCCACACTCTCTCACCTGCCACGTCAGGAAGTGTA
In the case of B2, the binding result in the data set with His6-SNAIL [4] is “binds”.

B3: FUT8 promoter WT unlabeled competitor (dsDNA)
DNA 1: B2 DNA 1
DNA 2: B2 DNA 2
For B3, in the data set with His6-SNAIL [5], the binding result is recorded as “binds”.
